Results as given in patent US20190077875A1 (MorphoSys, published 2019).

Biological target: T1, MOR202 (anti-CD38 antibody)
T1 construct: also called MOR03087
Assay: serum immunofixation electrophoresis (IFE) after pre-incubation of MOR202 (1200 µg/mL, saline or serum) with MOR09292-hAlb; anti-IgG or anti-lambda staining
Method: MOR202 at a constant concentration of 1200 μg/mL in saline (Lane 2-3) or serum (Lane 4-13) was pre-incubated with or without its idiotypic antibody MOR09292-hAlb at different ratios and the prepared samples were analyzed via IFE using anti-IgG staining (Lane 2-8) or anti-lambda staining (Lane 9-13). (Lane 2=MOR202; Lane 3=MOR202+MOR09292-hAlb at 2400 μg/mL; Lane 4=MOR202; Lane 5=MOR202+MOR09292-hAlb at 1200 μg/mL; Lane 6=MOR202+MOR09292-hAlb at 1800 μg/mL; Lane 7=MOR202+MOR09292-hAlb at 2400 μg/mL; Lane 8=MOR202+MOR09292-hAlb at 3600 μg/mL; Lane 9=MOR202; Lane 10=MOR202+MOR09292-hAlb at 1200 μg/mL; Lane 11=MOR202+MOR09292-hAlb at 1800 μg/mL; Lane 12=MOR202+MOR09292-hAlb at 2400 μg/mL; Lane 13=MOR202+MOR09292-hAlb at 3600 μg/mL; Lane 1=human serum from a healthy donor stained for total protein to evaluate general background signaling).
In order to differentiate between MOR202 related assay signals in IFE vs. endogenous M-protein spikes a method was tested pre-incubating a MOR202 containing sample with an MOR202 specific anti-idiotypic antibody (MOR09292). […] For evaluating if the migration distance is large enough to be detected samples containing MOR202 in saline were prepared and pre-incubated with or without MOR09292. […] Afterwards, the samples were analyzed and IFE gels were stained with anti-IgG or anti-lambda antisera. […]

T1 sequence (VH, as listed by the source, chain 1 of 2): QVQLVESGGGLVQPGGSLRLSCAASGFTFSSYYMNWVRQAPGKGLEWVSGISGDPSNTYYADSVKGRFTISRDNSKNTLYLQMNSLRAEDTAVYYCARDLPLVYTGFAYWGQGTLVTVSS
T1 sequence (VL, as listed by the source, chain 2 of 2): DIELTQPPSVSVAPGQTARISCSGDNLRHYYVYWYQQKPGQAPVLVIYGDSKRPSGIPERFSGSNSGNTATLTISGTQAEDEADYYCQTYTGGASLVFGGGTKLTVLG

binding result: binds
B1: MOR09292-human albumin fusion (MOR09292-Fab fragment genetically fused to human albumin) (Fab)
heavy: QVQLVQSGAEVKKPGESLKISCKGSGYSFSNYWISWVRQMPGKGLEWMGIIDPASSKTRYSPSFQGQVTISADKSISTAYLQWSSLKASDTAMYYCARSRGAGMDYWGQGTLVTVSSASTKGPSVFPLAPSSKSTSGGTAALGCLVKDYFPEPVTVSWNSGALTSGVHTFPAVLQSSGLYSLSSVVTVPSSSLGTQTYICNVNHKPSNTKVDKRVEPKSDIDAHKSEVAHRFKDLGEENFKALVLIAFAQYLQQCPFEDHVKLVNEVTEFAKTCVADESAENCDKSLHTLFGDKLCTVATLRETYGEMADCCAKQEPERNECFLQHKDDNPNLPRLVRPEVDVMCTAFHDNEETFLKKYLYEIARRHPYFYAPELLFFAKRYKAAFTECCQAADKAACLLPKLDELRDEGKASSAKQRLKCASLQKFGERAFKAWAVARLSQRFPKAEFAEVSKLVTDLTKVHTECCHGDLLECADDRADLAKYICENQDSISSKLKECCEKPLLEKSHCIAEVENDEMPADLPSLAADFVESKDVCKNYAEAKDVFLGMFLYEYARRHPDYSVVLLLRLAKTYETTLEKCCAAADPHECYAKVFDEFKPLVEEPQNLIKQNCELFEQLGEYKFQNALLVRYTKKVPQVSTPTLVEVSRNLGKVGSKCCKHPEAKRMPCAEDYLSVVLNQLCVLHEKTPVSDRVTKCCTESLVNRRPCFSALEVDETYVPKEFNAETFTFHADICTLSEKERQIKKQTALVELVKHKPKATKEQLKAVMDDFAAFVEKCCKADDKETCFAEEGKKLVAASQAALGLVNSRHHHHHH
light: DIVLTQPPSVSGAPGQRVTISCTGSSSNIGAGYDVHWYQQLPGTAPKLLIYADNNRPSGVPDRFSGSKSGTSASLAITGLQSEDEADYYCGSYDESSNSMVFGGGTKLTVLGQPKAAPSVTLFPPSSEELQANKATLVCLISDFYPGAVTVAWKADSSPVKAGVETTTPSKQSNNKYAASSYLSLTPEQWKSHRSYSCQVTHEGSTVEKTVAPTECS
notes: Anti-idiotypic Fab to MOR202, fused to human albumin; also called MOR09292-hAlb; MOR09292-huAlb
